Data published in patent publication US20110091992A1 (AstraZeneca / MedImmune, published 2011).

Key:
[1] = target: Human CD16 (V158 allotype), soluble (human) (UniProt P08637); test: SPR (BIAcore 3000), Fc amine-coupled to CM5 chip, soluble CD16 V158 at 1 nM-1.6 µM, steady-state isotherm fit, 25 C
Human FcγRIIA [2] = target: T1, Human FcγRIIA (human, UniProt P12318 34-217, limits assumed); test: SPR (BIAcore 3000), immobilised Fc/Mut2, human FcγRIIA injected at 8 µM
T1 construct: The construct is not described
T1 sequence (looked up): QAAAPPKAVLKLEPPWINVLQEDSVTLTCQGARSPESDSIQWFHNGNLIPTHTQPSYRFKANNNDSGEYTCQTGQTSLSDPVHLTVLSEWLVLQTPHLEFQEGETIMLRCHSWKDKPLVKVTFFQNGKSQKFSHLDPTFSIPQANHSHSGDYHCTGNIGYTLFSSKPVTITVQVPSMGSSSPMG

Human FcγRIIA [3] = target: T1, Human FcγRIIA; test: SPR (BIAcore 3000), immobilised Fc/Mut3, human FcγRIIA injected at 8 µM
Human FcγRIIB = target: T2, Human FcγRIIB (human, UniProt P31994 43-217, limits assumed); test: SPR (BIAcore 3000), immobilised Fc/Mut3, human FcγRIIB injected at 8 µM
T2 construct: The construct is not described
T2 sequence (looked up): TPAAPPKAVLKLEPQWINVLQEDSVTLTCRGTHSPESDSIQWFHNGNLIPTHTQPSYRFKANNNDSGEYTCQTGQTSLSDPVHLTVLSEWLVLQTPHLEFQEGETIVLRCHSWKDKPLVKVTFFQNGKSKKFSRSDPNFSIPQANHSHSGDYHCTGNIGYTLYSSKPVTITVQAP

Human CD16 (V158 allotype), soluble (human), sequence (P08637 17-208 F176V): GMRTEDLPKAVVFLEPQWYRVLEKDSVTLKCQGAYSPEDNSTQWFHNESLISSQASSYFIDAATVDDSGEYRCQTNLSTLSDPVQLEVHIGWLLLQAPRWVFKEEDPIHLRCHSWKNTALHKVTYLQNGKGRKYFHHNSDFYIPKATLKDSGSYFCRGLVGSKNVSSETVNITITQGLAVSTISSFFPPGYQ

Molecule: Unmutated human Fc (from UniProt P0DOX5 225-449)
- Kd [1]: 157 nM

B1: Fc/Mut2 (other)
chain: THTCPPCPAPELLGGPSVFLFPPKPKDTLMISRTPEVTCVVVDVSHEDPEVKFNWYVDGVEVHNAKTKPRENSTYRVVSVLTVLHQDWLNGKEYKCKVSNKALPAPIEKTISKAKGQPREPQVYTLPPSREEMTKNQVSLTCLVKGFYPSDIAVEWESNGQPENNYKTTPPVLDSDGSFFLYSKLTVDKSRWQQGNVFSCSVMHEALHNHYTQKSLSLSPGK
notes: It was made in the same expression construct as the unmutated human Fc and expressed in HEK 293 cells
- binding result (Human FcγRIIA [2]): no binding (tested: 8 µM)

B2: Fc/Mut3 (other)
chain: THTCPPCPAPELLGGPSVFLFPPKPKDTLMISRTPEVTCVVVDVSHEDPEVKFNWYVDGVEVHNAKTKPRENSTVVSVLTVLHQDWLNGKEYKCKVSNKALPAPIEKTISKAKGQPREPQVYTLPPSREEMTKNQVSLTCLVKGFYPSDIAVEWESNGQPENNYKTTPPVLDSDGSFFLYSKLTVDKSRWQQGNVFSCSVMHEALHNHYTQKSLSLSPGK
notes: as for B1
- binding result (Human FcγRIIA [3]): no binding (tested: 8 µM)
- binding result (Human FcγRIIB): no binding (tested: 8 µM)
